We go through three substances from US20100285526.

Data set [1] deals with GST-IL11(A) fusion protein [GST: P08515].
Data set [2] has as its system T1, His-IL11 fusion protein.
T1 sequence: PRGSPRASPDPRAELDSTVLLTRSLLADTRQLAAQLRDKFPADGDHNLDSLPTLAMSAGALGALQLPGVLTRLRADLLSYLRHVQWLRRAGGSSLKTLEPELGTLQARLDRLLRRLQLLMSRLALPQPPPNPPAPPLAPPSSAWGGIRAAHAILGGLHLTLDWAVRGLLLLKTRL

For data set [3], the system named is GST-IL6 fusion protein [GST: P08515].
Data set [4] has as its system GST-Thymosin β4 fusion protein [GST: P08515].
Data set [5] relates to MBP-IL11 fusion protein [MBP: P0AEX9].
The test system of data set [6] is GST-IL11(LV-) fusion protein [GST: P08515].

Turning to bovine thrombin, in data set [1], the “thrombin cleavage of the fusion protein, SDS-PAGE time course” value is “The GST fusion partner was efficiently cleaved by both bovine and human thrombin in the concentration ranges and the time points tested”.
Still for that read-out and setting: with human thrombin the entry was “The GST fusion partner was efficiently cleaved by both bovine and human thrombin in the concentration ranges and the time points tested”.
Turning to thrombin (species not stated), the “thrombin cleavage of the fusion protein, SDS-PAGE time course” value in data set [2] is “The fusion protein His-IL11 (22 kDa) gradually disappeared, and the amount of IL11 (18 kDa) increased as reaction time passed”; in data set [3], “The fusion protein GST-IL6 (46 kDa) gradually disappeared, and the amount of IL-6 (22 kDa) increased as reaction time passed”; in data set [4], “The fusion protein GST-Thymosin β4 (31 kDa) gradually disappeared, and the amount of thymosin β4 (5 kDa) increased as reaction time passed”; in data set [5], “The fusion protein MBP-IL11 (60 kDa) gradually disappeared, and the amount of IL11 (18 kDa) increased as reaction time passed”; in data set [6], “The fusion protein GST-IL11(LV-) (44 kDa) gradually disappeared, and the amount of IL-11(LV-) (18 kDa) increased as reaction time passed”. In addition, the “choice of cleavage site within the linker” value in data set [1] is reported as “thrombin cleavage occurs not at Arg↓Gly but at Arg↓Ala”. In data set [1], the “integrity of released IL-11, MALDI-TOF/MS” value is listed as “it was confirmed that intact IL-11 protein was generated after thrombin cleavage of GST-IL11(A)”. Further, in data set [4], the “integrity of released thymosin β4, MALDI-TOF/MS” value is reported as “it was confirmed that intact thymosin β4 protein was generated after thrombin cleavage of GST-Thymosin β4”.
